According to patent US20230340152A1 (published 2023):
Numbering of substitutions follows the chain as printed. Numbers in names are those of the source.

Legend:
[1] = target: T1, Recombinant soluble wild-type human CD73 with C-terminal 6x-histidine tag (human, UniProt P21589 27-549); experiment: SPR (ProteOn), CD73 immobilized on HTG chip
T1 construct: dimer in solution; also called sCD73; WT huCD73
T1 sequence: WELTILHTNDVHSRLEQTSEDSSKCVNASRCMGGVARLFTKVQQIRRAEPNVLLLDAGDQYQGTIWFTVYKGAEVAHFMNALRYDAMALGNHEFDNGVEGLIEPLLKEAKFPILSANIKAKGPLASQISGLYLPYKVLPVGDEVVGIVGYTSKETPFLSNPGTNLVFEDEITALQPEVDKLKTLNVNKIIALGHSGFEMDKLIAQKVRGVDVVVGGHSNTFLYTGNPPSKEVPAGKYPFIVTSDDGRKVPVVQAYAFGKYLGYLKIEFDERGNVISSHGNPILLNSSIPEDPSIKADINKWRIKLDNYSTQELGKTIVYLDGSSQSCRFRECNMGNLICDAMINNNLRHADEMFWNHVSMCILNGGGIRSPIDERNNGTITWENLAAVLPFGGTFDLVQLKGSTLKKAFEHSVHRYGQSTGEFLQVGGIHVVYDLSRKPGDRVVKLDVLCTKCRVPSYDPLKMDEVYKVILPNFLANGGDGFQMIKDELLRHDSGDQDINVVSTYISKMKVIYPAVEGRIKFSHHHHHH

[2] = target: T2, Murine CD73 on cells (4T1, Jurkat mCD73 knock-in) (murine, UniProt Q61503 29-551); experiment: cell-based or functional assay
T2 sequence (looked up): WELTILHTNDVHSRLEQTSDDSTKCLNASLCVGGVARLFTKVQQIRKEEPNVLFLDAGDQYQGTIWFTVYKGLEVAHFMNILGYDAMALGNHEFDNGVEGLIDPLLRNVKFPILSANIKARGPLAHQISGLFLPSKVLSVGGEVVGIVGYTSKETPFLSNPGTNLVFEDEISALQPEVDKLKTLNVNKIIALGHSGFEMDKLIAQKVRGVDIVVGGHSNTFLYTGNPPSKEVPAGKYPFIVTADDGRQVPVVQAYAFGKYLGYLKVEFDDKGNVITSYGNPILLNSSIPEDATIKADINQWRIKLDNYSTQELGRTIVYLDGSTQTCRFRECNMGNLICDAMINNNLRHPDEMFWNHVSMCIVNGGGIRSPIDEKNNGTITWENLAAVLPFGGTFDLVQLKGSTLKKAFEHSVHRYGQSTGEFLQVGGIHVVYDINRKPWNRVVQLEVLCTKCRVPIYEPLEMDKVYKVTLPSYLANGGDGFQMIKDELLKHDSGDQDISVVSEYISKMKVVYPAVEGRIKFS

[3] = target: T3, Human CD73 on cells (MDA-MB-231, Jurkat CD73 knock-in, NCI-H322) (human, UniProt P21589 27-549); experiment: cell-based or functional assay
T3 sequence: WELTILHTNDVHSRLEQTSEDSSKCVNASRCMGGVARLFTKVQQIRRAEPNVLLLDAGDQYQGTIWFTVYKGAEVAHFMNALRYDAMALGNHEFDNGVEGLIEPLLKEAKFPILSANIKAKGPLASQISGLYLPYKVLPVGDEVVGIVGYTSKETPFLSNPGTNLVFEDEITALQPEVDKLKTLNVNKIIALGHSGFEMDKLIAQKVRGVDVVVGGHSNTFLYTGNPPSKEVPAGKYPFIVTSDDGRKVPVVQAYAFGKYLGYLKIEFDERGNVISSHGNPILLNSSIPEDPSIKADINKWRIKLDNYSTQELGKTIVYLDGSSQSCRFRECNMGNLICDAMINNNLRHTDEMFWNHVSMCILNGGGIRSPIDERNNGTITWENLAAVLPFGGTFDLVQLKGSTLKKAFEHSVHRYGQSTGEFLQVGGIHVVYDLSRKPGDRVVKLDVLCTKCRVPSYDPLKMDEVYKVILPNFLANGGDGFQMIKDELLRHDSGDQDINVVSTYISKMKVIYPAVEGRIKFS

[4] = target: T4, Cynomolgus CD73 on MK-1 cells (cynomolgus, UniProt A0A2K5V5U7 27-549); experiment: flow cytometry on cells
T4 construct: whole, on cells; also called MK-1 (cyno)
T4 sequence: T3 sequence with M199T, T350A, V466I

[5] = target: T2, Murine CD73 on cells (4T1, Jurkat mCD73 …); experiment: flow cytometry, 4T1 / 4T1(mCD73 -shRNA)

B1: MEDI9447 (antibody, human IgG1, lambda, V domains shown)
VH: EVQLLESGGGLVQPGGSLRLSCAASGFTFSSYAYSWVRQAPGKGLEWVSAISGSGGRTYYADSVKGRFTISRDNSKNTLYLQMNSLRAEDTAVYYCARLGYGRVDEWGRGTLVTVSS
VL: QSVLTQPPSASGTPGQRVTISCSGSLSNIGRNPVNWYQQLPGTAPKLLIYLDNLRLSGVPDRFSGSKSGTSASLAISGLQSEDEADYYCATWDDSHPGWTFGGGTKLTVLG
notes: Human IgG1-TM (L234F, L235E, P331S), lambda light chain; also called clone 10.3 antibody; 73combo3
koff [1]: 1.94e-05 s⁻¹ | kon [1]: 4.63e+06 M⁻¹ s⁻¹ | FabZAP internalization, EC50, 4T1 [2]: 18.5 pM | FabZAP internalization, EC50, MDA-MB-231 [3]: 3.5 pM | Kd [4]: 84 pM | Mean Fluorescence Intensity Ratio (MFIR) [5]: 3.9
